Each binder was assayed against human TNF (human, UniProt P01375 77-233) (assay: SPR, scFv).
Chain of human TNF (P01375 77-233 limits assumed): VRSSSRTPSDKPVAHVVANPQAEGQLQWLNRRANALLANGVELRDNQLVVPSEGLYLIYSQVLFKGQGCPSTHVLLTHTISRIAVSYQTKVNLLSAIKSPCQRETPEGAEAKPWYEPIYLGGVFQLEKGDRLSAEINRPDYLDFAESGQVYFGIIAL

| Binder | Kd | koff | kon |
| --- | --- | --- | --- |
| Vκ1/VH4 consensus λ-capped (TNF-specific scFv) (scFv, scFv; also called capped Vκ1/VH4 consensus molecule) scFv: DIQMTQSPSSLSASVGDRVTITCQASQSISDWLAWYQQKPGKAPKLLIYGASRLASGVPSRFSGSGSGTDFTLTISSLQPEDFATYYCQQGWSDSYVDNLFGGGTKLTVLGGGGGSGGGGSGGGGSGGGGSQVQLQESGPGLVKPSETLSLTCTVSGFSLSSGAMSWIRQPPGKGLEWIGVIISSGATYYASWAKGRVTISVDTSKNQFSLKLSSVTAADTAVYYCARGGPDDSNSMGTFDPWGQGTLVTVSS | 0.0533 nM | 3.36e-05 s⁻¹ | 631000 M⁻¹ s⁻¹ |
| Vκ1/VH4 consensus (T24K, T84S) λ-capped (TNF-specific scFv) (scFv, scFv; also called Vκ1/VH4mut; mutant variant of Vκ1/VH4) scFv: DIQMTQSPSSLSASVGDRVTITCQASQSISDWLAWYQQKPGKAPKLLIYGASRLASGVPSRFSGSGSGTDFTLTISSLQPEDFATYYCQQGWSDSYVDNLFGGGTKLTVLGGGGGSGGGGSGGGGSGGGGSQVQLQESGPGLVKPSETLSLTCKVSGFSLSSGAMSWIRQPPGKGLEWIGVIISSGATYYASWAKGRVTISVDSSKNQFSLKLSSVTAADTAVYYCARGGPDDSNSMGTFDPWGQGTLVTVSS | 0.043 nM | 3.28e-05 s⁻¹ | 764000 M⁻¹ s⁻¹ |
| Vκ3/VH4 consensus λ-capped (TNF-specific scFv) (scFv, scFv) scFv: DIVLTQSPATLSLSPGERATLSCQASQSISDWLAWYQQKPGQAPRLLIYGASRLASGVPARFSGSGSGTDFTLTISSLEPEDFAVYYCQQGWSDSYVDNLFGGGTKLTVLGGGGGSGGGGSGGGGSGGGGSQVQLQESGPGLVKPSETLSLTCTVSGFSLSSGAMSWIRQPPGKGLEWIGVIISSGATYYASWAKGRVTISVDTSKNQFSLKLSSVTAADTAVYYCARGGPDDSNSMGTFDPWGQGTLVTVSS | 0.119 nM | 5.25e-05 s⁻¹ | 440000 M⁻¹ s⁻¹ |
| Vκ3/VH4 consensus (T24K, T84S) λ-capped (TNF-specific scFv) (scFv, scFv; also called Vκ3/VH4mut) scFv: DIVLTQSPATLSLSPGERATLSCQASQSISDWLAWYQQKPGQAPRLLIYGASRLASGVPARFSGSGSGTDFTLTISSLEPEDFAVYYCQQGWSDSYVDNLFGGGTKLTVLGGGGGSGGGGSGGGGSGGGGSQVQLQESGPGLVKPSETLSLTCKVSGFSLSSGAMSWIRQPPGKGLEWIGVIISSGATYYASWAKGRVTISVDSSKNQFSLKLSSVTAADTAVYYCARGGPDDSNSMGTFDPWGQGTLVTVSS | 0.0793 nM | 3.09e-05 s⁻¹ | 390000 M⁻¹ s⁻¹ |

Reference: patent US20200255533A1 (NUMAB THERAPEUTICS, published 2020)
